Data published in paper PMC11909135, “Raptin, a sleep-induced hypothalamic hormone, suppresses appetite and obesity” (Cell Research, 2025).

Molecular target: glutamate metabotropic receptor 3 (GRM3), endogenous (mouse (endogenous in GT1-7 neurons and …, UniProt Q9QYS2 23-879))
Assay: cell-based or functional assay

Chain of glutamate metabotropic receptor 3 (GRM3), endogenous (mouse (Q9QYS2 23-879): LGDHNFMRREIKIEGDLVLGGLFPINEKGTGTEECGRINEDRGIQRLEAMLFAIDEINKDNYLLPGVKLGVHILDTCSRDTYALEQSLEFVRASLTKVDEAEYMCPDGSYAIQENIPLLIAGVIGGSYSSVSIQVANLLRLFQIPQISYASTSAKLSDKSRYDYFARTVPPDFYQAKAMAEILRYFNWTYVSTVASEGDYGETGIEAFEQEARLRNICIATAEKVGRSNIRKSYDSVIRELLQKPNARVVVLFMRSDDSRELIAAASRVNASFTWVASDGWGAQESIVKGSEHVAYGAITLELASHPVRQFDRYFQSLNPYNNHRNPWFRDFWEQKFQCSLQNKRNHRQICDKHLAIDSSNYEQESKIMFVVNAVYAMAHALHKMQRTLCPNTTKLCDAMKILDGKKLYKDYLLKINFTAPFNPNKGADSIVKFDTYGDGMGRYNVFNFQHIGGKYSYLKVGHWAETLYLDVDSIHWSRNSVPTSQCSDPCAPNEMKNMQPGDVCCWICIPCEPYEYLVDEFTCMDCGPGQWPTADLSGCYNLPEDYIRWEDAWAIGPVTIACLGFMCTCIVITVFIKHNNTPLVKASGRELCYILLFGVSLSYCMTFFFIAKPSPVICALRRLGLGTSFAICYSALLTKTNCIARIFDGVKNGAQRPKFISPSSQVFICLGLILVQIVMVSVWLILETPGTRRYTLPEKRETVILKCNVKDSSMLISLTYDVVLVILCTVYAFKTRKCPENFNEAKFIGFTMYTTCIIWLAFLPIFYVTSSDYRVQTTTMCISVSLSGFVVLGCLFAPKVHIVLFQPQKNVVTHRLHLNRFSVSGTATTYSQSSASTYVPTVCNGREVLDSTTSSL

p-AKT accumulation in GT1-7 cells expressing GRM3 (EC50 of Raptin): 0.31 ng/mL
B1: recombinant mouse Raptin protein with a His-tag (ligand)
chain: AEELHYPQGEHRADYDREALLGVQEDVDEYVKLGHEEQQRRLQSIIKKIDSDSDGFLTENELSQWIQMSFKHYAMQEAKQQFVEYDKNSDGAVTWDEYNIQMYDRVIDFDENTALDDTEEGSFRQLHLKDKKRFEKANQDSGPGLSLEEFIAFEHPEEVDYMTEFVIQEALEEHDKNGDGFVSLEEFLGDYRRDPTANEDPEWILVEKDRFVNDYDKDNDGR
